This sample holds only a part of the variants without activity.
B1: TPR 5TU (parent)
chain: GGAUCUUCUCGAUCUAACAAAAAAGACAAAUCUGCCACAAAGCUUGAGAGCAUCUUCGGAUGCAGAGGCGGCAGCCUUCGGUGGCGCGAUAGCGCCAACGUUCUCAACUAUGACACGCAAAACGCGUGCUCCGUUGAAUGGAGUUUAUCAUG

Variants of: B1
Test: polymerase ribozyme fitness, log enrichment relative to wild type (log ratio); higher = more active; in vitro selection for triplet polymerase activity
Outline: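 Each subunit of a heterodimeric triplet polymerase ribozyme was mutagenized into a library by PCR, transcribed, and subjected to one round of in vitro selection, run in triplicate. Libraries were annealed with a biotinylated primer, the partner subunit and triplets, incubated frozen at −7 °C, and extended constructs were gel-excised, captured on streptavidin beads and recovered by RT-PCR. Input and output libraries were sequenced on Illumina, keeping genotypes with ≥10 input reads and ≥1 read per output. Fitness is log base 2 of genotype enrichment divided by wild-type enrichment, from inverse-variance-weighted replicate averages.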

Variant	polymerase ribozyme fitness (log ratio)
GGAUCUUCUCGAUCUAACAAAAAAGACAAAUCUGCCACUCAUCUUGAAAGCAUCUUCGGUUGCAGAGGCGGCAGCCUUCGGGGGAGCGAUAGCGCCAACGUUCACAACUAUGACACGCAAAACGCGCGCUCCGUUGAAUGGAGUUUAUCAUG [A39U A40C G42U G48A A60U U82G C85A U104A U127C]	≤ -4.2
GGAUCUUCUCGAUCUAACAAAAAAGACAAAUCUGCCACAAAGCUUGAGAGCAUCUUCGGAUGCAGAGGCGGCAGCCUUCGGUGGCGCGAUAGUGCCAACGUUCUCAACUAUGACACGCAAAACGCGUGCUCCGUCGAAUGGAGUUUAUCAUG [C93U U135C]	-2.76
GGAUCUUCUCGAUCUAACAAAAAAGACAAAUCUGCCACAAAGCUUGAGAGCAUUUUCGGAUGCAGAGGCGGCAGCCUUCGGUGGCGCGAUUGCGCCAACGUUCUCAACUAUGACACGCAAAACGCGUGCUCCGUUGAAUGGAGUUUAUCAUG [C54U A91U]	≤ -4.2
GGAUCUUCUCGAUCUAACAAAAAAGACAAAUCUGCCAUAAAGCUUGACAGCAUCUUCGGAUGCAGAGGCGGCAGCCUUCGGUGGCGCGAUAACGCCAACGUUCUCAACUAUGACACGCAAAACGCGUGCUCCGUUGAAUGGCUUUUAUCAUG [C38U G48C G92A A142C G143U]	≤ -4.2
GGAUCUUCUCGAUCUAACAAGAAAGACAAAUCUGCCACAAAGCUUGAGAGCAUCUUCGGAUGCAGAGGCGGCAGCCUUCAGUGGCGCGAUAGCGCCAAGGUUCUCAACUAUGACACGCUAAACGCGUGCUCCGUUGAAUGGAGUUUAUCAUG [A21G G80A C99G A119U]	-0.387
GGAUCUUCUCGAUCUAACAAAAAAGACAAAUCUGCCACAAAGCUUGAGAGCAUUUUCGGAUGCAGAGGCGGCAGCCUUCGGUGGGGCGAUAGCGCCAACGUUCUCAACUAUGACACGCAAAACGCGUGCUCCGUUGAAUGGAGUUUAUCAUG [C54U C85G]	-2.49
GGAUCUUCUCGAUCUAACAAAAAAGACAAAUCUGCCCCAAAGCUUGAGAGCAUCUUCCGAUGCAAAGGCGGCAGCCUUCGGUGGCGCGAUAGCGCCAACGUUCUCAACUAUGACACGCAAAACGCGUGCUCCGUUGAAUGGAGUUUAUCAUG [A37C G58C G65A]	-3.6
GGAUCUUCUCGAUCUAACAAAAAAGACAAAUCUGCCACAAAGCUUGAGAGCAUCUUCGGAUGCAGAGGCGGCAGCCUUCGGAGGCGCGAUAGCGCCAACGUUCUCAACUAUGACACGCACAACGCGUGCCCCGUUGAAUGGAUUUUAUCAUG [U82A A120C U130C G143U]	-2.44
GGAUCUUCUCGAUCUGAUAAAAAAGAUUAAUCUGCCACACAGCUUGAGACCAUCUACGGAUGCAGAGGCGGCAGCCUUCGGUGCCGCGAUAGCGCCAACGUUCUCAACUAUGACACGCAAAACGAGUGCUCCGUUGAAUGGAAUUGAUCAUG [A16G C18U C27U A28U A40C G50C U56A G84C C125A G143A U146G]	≤ -4.2
GGAUCAUCUCGAUCUAACAAAAAAGACAAAUCUGCCACAAAGCUUGAGAGCAUCUUCGGAUGCAGAGGCGGCAGCCUUCGGUGGCGCGAUAGAGCCAACGUUCUCAACUAUGACACGCAAAACGCGUGCUCCGUUGAAUGGAGUUUAUCAUG [U6A C93A]	-2.58
GGAUCUUCUCGAUCUAACAAAAAAGACAAAUCUGCCACAAAGCUUGAGAGCAUCUUAGGAUGCAGAGGCGGCAGCCUUCGGUGGCGCGAUAGUGCCAACGUUCUCAACUAUGACACGCAAAACGCGUGCUCCGUUGAAUGGAGUUUAUCAUG [C57A C93U]	-1.11
GGAUCUUCUCGAUUUAACAAAAAAGACAAAUCUGCCACAAAGCUUGAGAGCAUCUUCGGAUGCGGAGGCGGCAGCCUUCGGUGGCGCGAUUGCGCCAACGUUCUGAACUAUGACACGCAAAACGCGUGCUCCGUUGAAUGGAGUUUAUCAUG [C14U A64G A91U C105G]	≤ -4.2
GGAUCUUCUCGAUCUAACAAAAAAGACAAAUCUGCCACAAAGCUUGAGAGCAUCUUCGGAUGCAGAGGCGGCAGCCUUCGGUGGCGCGAUAGAACCAACGUUCUCAACUAUGACACGCAAAAUGCGUGCUCCGUUGAAUGGAGUUUAUUAUG [C93A G94A C123U C149U]	≤ -4.2
GGAUCUUCUCGAUCUAACAAAAAAGACAAAUCUGCCACAAAGCUUGAGAGCAUCUUCGGAUGCAGAGGCGGCAGCCUUCGGUGGCGCGAUAGCGCGAACGUUCUCAACUAUGACACGCAAAACGCGUGCUCCGUUGAAUGCAGUUUAUCAUG [C96G G141C]	-0.919
GGAUCUUCUCGAUCUAACAAAAAAGACAAAUAUGCCACAAAGCUGAAGAGCAUCUUCGGAUGCAGAGGCGGCAGCCUUCGGUGGCGCGAUAGCGCCAAGGUUGUCAACUAUGACACGCAAAACGCGCGCUCCGUUGAAUGGAGUUUAGCAUG [C32A U45G G46A C99G C103G U127C U148G]	≤ -4.2
GGAUCUUCUCGAUCUAACAAAAAAGACAAAUCUGCCACAAAGCUUGAGCGCAUCUUCGGAUGCAGAGGCGGCAGCCUUAGGUGGCGCGAUAGCGCCAACGUUCUCAAUUAUGACACGCAAAAAGCGUGCUCCGUUGAAUGGAGUUUAUCAUG [A49C C79A C108U C123A]	≤ -4.2
GGAUCUUCUCGAUCUAACAAAGAAGACAAAUCUGCCACAAAGCUUGAGAGCAUCUUCGGAUGCAGAGGCGGCAGCCUUCGGUGGCGCGAUAGCGCCAACGUUCUCAACUGUGACACGCAAAACGCGUGCUCCGUUGAAUGGAGUUUAUCAUG [A22G A110G]	-3.28
GGAUCUUCUCGAUCUAACAAAAAAGACAAAUCUGCCACAAAGCUUGAGAGCAUCUUCGGAUGCAGAGGCGGCAGCCUUCGGUGGCGCGAUAGCGCCAACGUUCUCAACUAUGACACGCAAAACGCGUGCUCCGUUGACUGGAGUUUAUCAUG [A138C]	-3.67
GGAUCUUCUCGAUCUAACAAAAAAGACAAAUCUGCCACAAAGCUUGAGAGCAUCUUCGGAUGCAGAGGCGGCAGCCUUCGGUGGCGCGAUAGCGCCAACGUUCUGAACUAUGACACGCAAAACGCGCGCUCCGUUGAAGGGAGUUUAUCAUG [C105G U127C U139G]	-2.77

Variant	polymerase ribozyme fitness (log ratio)
GGAUCUUCUCGAUCUAACAAAAAAGACAAAUCUGCCACACAGCUUGAGAGCAUCUUCGGAUGCAGAGGCGGCAGCGUUCGGUGGCGCGAUAGCGCCAACGUUCUCAACUAUGACACGCAAAACGCGUGCUCCGUUGAAUGGAGUUUAUCAAG [A40C C76G U151A]	≤ -4.2
GGAUCUUCUCGCUCUAACAAAAAAGAUAAAUCUUCCACAAAGCUUGAGAGCAUCUUCGGAUGUAGAGGCGGCAGCCUUCGGUGGCGCGAUAGAGCCAACGUUCUCAACUAUGACACGCAAAACGCGUGCUCCGUUGAAUGGAGUUUAUCAUG [A12C C27U G34U C63U C93A]	-4.1
GGAUCUUCUCGAUCUAACAAAAAAGACAAAUCUGCCACAAAGCUUGGGAGUAUCUUCGGAUGCAGAGGCGGCAGCCUUCGGUGGCGUGAUAGCGCCAACGUUCUCAACUAUGACACGCAAAACGCGUGCUCCGUUGAAUGGAGUUUAUCAUG [A47G C51U C87U]	-0.414
GGAUCUUCUCGAUCUAACAAAAAAGACAAAUCUGCCACAAAGCUUGAGAGCAUCUUCUGAGGUAGAGGCGGCACCCUUCGGUGGCGCGAUAGCGCCAACGUUCUCAACUAUGACACGCAAAACGCGUGCUCCGUUGAAUGCAGUUUAUCAUG [G58U U61G C63U G74C G141C]	≤ -4.2
GGAUCUUCUCGAUCUAACAAAAUAGACAAAUCUGCCACAAAGUUUGAGAGCAUCUUCGCGUGCAGAGGCGGCAGCCUUCGGUGGCGCGAUAGCCCCAACGUUCUCAACUAUGACACGCAAAACGCGUGCUCCGUUGAAUGGAGUUUAUCAUG [A23U C43U G59C A60G G94C]	≤ -4.2
GGAUCUUCUCGAUCUAACAAAAACGACAAAUCUGCCACAAAGCUUGAGCGCCUCUUCGGAUGCUGAGGAGGCAGCCUUCGGGGGCGCGAUAGCGCCAACGUUCUCAAUUAUGACACGCAAAACGCGUGCACCGUUGAAGGGAGUUUAUCAUG [A24C A49C A52C A64U C69A U82G C108U U130A U139G]	≤ -4.2
GGAUCUUCUCGAUCUAACAAAAAAGACAAAUCUGCCACAAAGCUUGAGAGCAUCUUCGGAUGCAGAGGCGGCAGCCUUCGGUGGUGCGAUAGCGCCAACGUUCUCAACUAUGACACGCAACACGCGUGCUCCGUUGAAUGGAGUUUAUCAUG [C85U A121C]	-0.139
GGAUUUUCUCGAUCUAACAAAAAAGACAAAUCAGCCACAAAGCUUGAGAGCAUCUUCGGAUGCAGAGGCGGCAGCCUUCGGUGGCGCUAUAGCGCUAACGUUCUCAACUAUGACACGCAAAACGCGCGCUCCGUUGAAUGGAGUUUAUCAUG [C5U U33A G88U C96U U127C]	≤ -4.2
GGAUCUUCUCGAUCUAACAAAAAAGACAAUUCUGCCAAAAAGCUUGAGAGCAUCUUCGGAUGCAGAGGCGGCAGGCUUCGGUGGUGCGAUAGCGCCAACGUUCUCAACUAUGACACGCAAAACGCGUGCUCCGUUGAAUGCAGUUUAUCAUG [A30U C38A C75G C85U G141C]	≤ -4.2
GGAUCUUCUCGAUCUAACAAAAAAGACAAAUCUGCCCCAAAGCUUGAGAGCAUCUUCGGAUGCAGAGGCCGCAGCCUUCGGUGGCGUGAUAGCGCCAACGUUCUCAACUAUGACACGCAAAACGCGCGCUCCGUUGAAUGGAGUUUAUCAUG [A37C G70C C87U U127C]	≤ -4.2
GGAUCUUCUCGAUCUAUCAUAAAAGACAAAUCUGCCUCAAAGCUUGAUAGCAUCUUCGGAUGCAGAGGCGGCAGCCUUCGGUGGCGCGAUAGCGCAAACGCUCUCAACUAUGACACGCAAAACGCGUGCUCCGUUGAAUGGAGUUUAUCAUG [A17U A20U A37U G48U C96A U101C]	≤ -4.2
GGAUCUUCUCGAUCUAACAAAAAAGACAAAUCUGCCACAAAGCUUGAGAGCAUCUUCGGAUGCAGAGGCGGCAGCCUUCGGUGGCGCGAUAGCGCUAACGUUCUAAACUAUGACACGCAAAACGCGUGCUCCGUUGAAUGGAGUUUAUCAUG [C96U C105A]	-0.493
GGAUCUUCUCGAUCUAACAAAAAAGACAAAUCUGCCACAAAGCUUGAGAGCAUUUUCGGAUGCAGAGGCGGCAGCUUUCGGUGGGGCGAUAGCGCCAACGUUCUCAACUAUGACACGCAAAACGCGUGCUCCGUUGAAUGGAGUUUAUCAUG [C54U C76U C85G]	-1.18
GGAUCUUCUCGAUCUAACAAAAAAGACACAUCUGCAACAAAGCUUGAGAGCAUCAUCGGAGGCAGAGGCGGCAGCCUUCGGUGGCGAGAUAGCGCCAACGUUCUCAACUAUGACACGCAAAACGCGUGCUCCGUUGAAUGGAGUUUAUCAUG [A29C C36A U55A U61G C87A]	≤ -4.2
GGAUCUUCUCGAUCUAACAAAAAAGACAAAUCUGCCACAAAGCUUGAGAGCAUCUUCGGAUGCAGAGGCGGCAACCUUCGGUGGCGCGAUAGCGCCAACGUUCUCAACUAUGACACGCAAAACGCGUGCUCCGUUGAAUGGAGUUUAUCUUG [G74A A150U]	-2.61
GGAUCUUCUCGAUCUAACAACAAAGACUAUUCUGCCACAAAGCUUGGGAGCAUCUUCGGAUGCAGAGGCGGCAGCCUUCGGUGGCGCGAUAGCGCCAACGUUCUCAACUAUGACACGCAAAACGCGUGCUCCGUUGAAUGGAGUUUAUCAUG [A21C A28U A30U A47G]	≤ -4.2
GGAUCUUCUCGAUCUAACAAAAAAGACAAAUCUGCCACAAAGCUUGAAAGCAUCUUUGGAUGCAGAGGCGGCAGCCUUCGGUCGCGCGAUAGCGCCAACGCUCUCAACUAUGACACGCAAAACGCGUGCUCCGUUGAAUGGAGUUUAUCAUG [G48A C57U G83C U101C]	-2.63
GGAUCUUCUCGAUCUAACAAAAAAGACAAAUCUGCCACAAAGCUUGAGAGUAUCUUCGGAUGCAGAGGCGGCAGCCUUCGGUGGCGCGGUAGCGCCAACGUUCUCAACUAUGACACGCAAAACGCGUGCUCCGUUGAAUGUAGUUUAUCAUG [C51U A89G G141U]	-0.598
GGAUCUUCUCGAUCUAACAAAAAAGACAAAUCUGCCACAAAGCUUGAGAGCAACUUCGGAUGCAGAGGCGGCAGCCUUCGGUGGCGCGAUAGCGCAAACGUUCUCAACUAUGACACGCAAAACGCGUGCUCCGUUGAAUGGAGUUUAUCAUG [U53A C96A]	-2.37

From the RNAGym collection of RNA variant scans (doi:10.1073/pnas.2313332121)
